Data published in patent US20030176334A1 (Scripps Research, published 2003).
Square brackets hold non-standard residues; d marks the D form.

What was measured:
[1] = molecular target: integrin αvβ3 (vitronectin receptor), purified and immobilized (UniProt P06756); assay: solid phase receptor binding assay, iodinated MMP-2 on immobilized αvβ3
[2] = molecular target: integrin αIIbβ3, purified and immobilized (UniProt P08514); assay: solid phase receptor binding assay, iodinated MMP-2 on immobilized αIIbβ3
[3] = molecular target: T1, integrin αvβ3 (vitronectin receptor), purified and immobilized (UniProt P06756 31-1048; P05106 27-788); assay: competition, fibrinogen (FG) binding to immobilized αvβ3; individual assay
T1 construct: Purified integrin coated at 50 ng per well; also called αvβ3 receptor
Method: (§1) Briefly, selected purified integrins were separately immobilized in Titertek microtiter wells at a coating concentration of 50 nanograms (ng) per well. […] After incubation for 18 hours at 4C, nonspecific binding sites on the plate were blocked with 10 milligrams/milliliter (mg/ml) of bovine serum albumin (BSA) in Tris-buffered saline. […] Radiolabeled ligands were used at concentrations of 1 nM and binding was challenged separately with unlabeled synthetic peptides.
(§2) Following a three hour incubation, free ligand was removed by washing and bound ligand was detected by gamma counting.

[4] = molecular target: T1, integrin αvβ3 (vitronectin receptor), …; assay: competition, vitronectin (VN) binding to immobilized αvβ3; individual assay
Method: as §1, §2

[5] = molecular target: T2, integrin αIIbβ3, purified and immobilized (UniProt P08514 32-1039; P05106 27-788); assay: competition, vitronectin (VN) binding to immobilized αIIbβ3; individual assay
T2 construct: Purified integrin coated at 50 ng per well; also called α11bβ3
Method: as §1, §2

[6] = molecular target: T1, integrin αvβ3 (vitronectin receptor), …; assay: competition, 125I-fibrinogen (1 nM) binding to immobilized purified αvβ3, gamma counting; mean of duplicates ± SD
Method: as §1, §2

[7] = molecular target: T2, integrin αIIbβ3, purified and …; assay: competition, 125I-fibrinogen (1 nM) binding to immobilized purified αIIbβ3, gamma counting; mean of duplicates ± SD
Method: as §1, §2

[8] = molecular target: T2, integrin αIIbβ3, purified and …; assay: competition, fibrinogen (FG) binding to immobilized αIIbβ3; individual assay
Method: as §1, §2

T1 sequence (P06756 31-1048, form in doubt, chain 1 of 2): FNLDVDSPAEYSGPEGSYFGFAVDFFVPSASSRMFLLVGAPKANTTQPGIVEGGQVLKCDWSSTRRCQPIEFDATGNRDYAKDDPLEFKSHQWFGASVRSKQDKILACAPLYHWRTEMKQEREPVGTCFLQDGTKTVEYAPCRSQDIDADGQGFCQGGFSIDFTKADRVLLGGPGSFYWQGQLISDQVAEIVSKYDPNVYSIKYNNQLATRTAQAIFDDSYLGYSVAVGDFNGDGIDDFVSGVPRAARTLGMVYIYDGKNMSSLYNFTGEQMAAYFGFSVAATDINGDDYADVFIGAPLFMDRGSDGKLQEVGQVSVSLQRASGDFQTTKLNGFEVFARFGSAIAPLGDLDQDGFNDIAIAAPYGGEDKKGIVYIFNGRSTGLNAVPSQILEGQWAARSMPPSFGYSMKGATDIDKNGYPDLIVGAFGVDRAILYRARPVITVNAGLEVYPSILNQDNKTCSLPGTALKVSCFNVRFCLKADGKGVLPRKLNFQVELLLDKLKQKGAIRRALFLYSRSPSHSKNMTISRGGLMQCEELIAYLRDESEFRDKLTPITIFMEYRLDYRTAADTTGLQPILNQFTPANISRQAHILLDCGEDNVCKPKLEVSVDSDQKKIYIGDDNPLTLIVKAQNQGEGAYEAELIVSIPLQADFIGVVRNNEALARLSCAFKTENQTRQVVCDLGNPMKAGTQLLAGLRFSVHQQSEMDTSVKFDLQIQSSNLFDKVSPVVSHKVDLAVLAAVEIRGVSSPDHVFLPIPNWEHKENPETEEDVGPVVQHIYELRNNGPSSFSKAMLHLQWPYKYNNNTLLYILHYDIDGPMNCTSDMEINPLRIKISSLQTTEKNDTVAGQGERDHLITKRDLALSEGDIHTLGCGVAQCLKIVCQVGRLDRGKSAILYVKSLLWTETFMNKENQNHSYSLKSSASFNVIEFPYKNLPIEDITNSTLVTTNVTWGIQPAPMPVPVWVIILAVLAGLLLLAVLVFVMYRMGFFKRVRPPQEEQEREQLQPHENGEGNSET
T1 sequence (P05106 27-788, form in doubt, chain 2 of 2): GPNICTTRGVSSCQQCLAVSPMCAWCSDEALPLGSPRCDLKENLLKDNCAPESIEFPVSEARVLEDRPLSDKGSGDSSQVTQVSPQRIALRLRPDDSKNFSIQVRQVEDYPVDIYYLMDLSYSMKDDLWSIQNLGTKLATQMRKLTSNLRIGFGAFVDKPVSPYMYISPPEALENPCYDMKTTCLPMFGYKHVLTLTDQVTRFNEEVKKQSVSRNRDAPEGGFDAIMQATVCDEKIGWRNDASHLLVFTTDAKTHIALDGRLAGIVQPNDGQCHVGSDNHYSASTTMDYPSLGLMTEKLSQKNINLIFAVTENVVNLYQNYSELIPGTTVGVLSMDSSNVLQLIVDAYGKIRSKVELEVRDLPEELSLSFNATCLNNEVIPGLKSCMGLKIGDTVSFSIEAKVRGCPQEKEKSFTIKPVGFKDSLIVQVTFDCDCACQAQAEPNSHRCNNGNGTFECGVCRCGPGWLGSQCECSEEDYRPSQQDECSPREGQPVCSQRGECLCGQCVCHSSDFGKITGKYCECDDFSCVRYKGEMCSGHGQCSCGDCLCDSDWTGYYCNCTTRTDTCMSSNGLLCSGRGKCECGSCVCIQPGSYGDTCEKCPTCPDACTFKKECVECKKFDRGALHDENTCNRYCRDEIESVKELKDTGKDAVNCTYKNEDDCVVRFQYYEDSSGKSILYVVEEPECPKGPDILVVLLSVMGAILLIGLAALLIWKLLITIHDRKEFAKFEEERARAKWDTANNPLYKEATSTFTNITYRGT
integrin αvβ3 (vitronectin receptor), purified and immobilized (UniProt P06756), sequence (P06756 31-1048, form in doubt, chain 1 of 2): as the sequence (P06756 31-1048, form in doubt, chain 1 of 2) above
integrin αvβ3 (vitronectin receptor), purified and immobilized (UniProt P06756), sequence (P05106 27-788, form in doubt, chain 2 of 2, further chain): as the sequence (P05106 27-788, form in doubt, chain 2 of 2) above

Molecule	IC50 [3]	IC50 [4]	IC50 [5]	IC50 [6]	IC50 [7]	other results
MMP-2 (matrix metalloproteinase-2) as used in the solid phase receptor binding assays (enzyme)	–	–	–	–	–	bound cpm [1]: 300 cpm; bound cpm [2]: 10 CPM
TRQVVCDLGNPM (Linear synthetic peptide; also called αv-derived amino acid residues 676-687) [peptide 62411, TRQVVCDLGNPM]	> 100 µM	> 100 µM	> 100 µM	–	–	–
cyclo(GRGD[dF]L) (also: TFA salt, TFA salt) [peptide 62179, cyclo(GRGDfL)]	–	–	–	0.395 µM	0.055 µM	–
cyclo(ARGD[dF]L) (also: TFA salt, TFA salt) [peptide 62175, cyclo(ARGDfL)]	–	–	–	1.05 µM	0.63 µM	–
cyclo(G[dR]GDFV) (also: TFA salt, TFA salt; also called cyclo(-Gly-D-Arg-Gly-Asp-Phe-Val); c-(GrGDFV)) [peptide 62181, cyclo(GrGDFV)]	–	–	–	1.96 µM	15 µM	–
cyclo(RAD[dF]V) (also: TFA salt, also called cyclo(Arg-Ala-Asp-D-Phe-Val)) [peptide 62185, cyclo(RADfV)]	–	–	–	0.885 µM	100 µM	–
cyclo(R[dA]DFV) (also: TFA salt, TFA salt; also called cyclo(Arg-D-Ala-Asp-Phe-Val)) [peptide 62186, cyclo(RaDFV)]	–	–	–	57.5 µM	100 µM	–

Further lines, with some results ahead:

IC50 [3]	IC50 [4]	IC50 [5]	IC50 [6]	IC50 [7]	Molecule	other results
> 100 µM	> 100 µM	> 100 µM	–	–	GVVRNNEALARLS (Linear synthetic peptide; also called αv-derived amino acid residues 655-667) [peptide 62503, GVVRNNEALARLS]	–
< 0.1 µM	0.5 µM	0.98 µM	–	–	YTAECKPQVTRGDVF (Linear synthetic peptide; also called VN-derived amino acid residues 35-49) [peptide 62880, YTAECKPQVTRGDVF]	IC50 [8]: 4.2 µM
> 100 µM	> 100 µM	5 µM	–	–	TDVNGDGRHDL (Linear synthetic peptide; also called αIIb-derived amino acid residues 296-306) [peptide 62502, TDVNGDGRHDL]	IC50 [8]: 90 µM
